From publication PMC10251477, “Doubly Constrained C-terminal of Roc (COR) Domain-Derived Peptides Inhibit Leucine-Rich Repeat Kinase 2 (LRRK2) Dimerization” (ACS Chemical Neuroscience, 2023)

Biological target: Purified full-length LRRK2 (UniProt Q5S007)
Experiment: mass photometry; LRRK2 at 150 nM or 200 nM incubated with constrained peptide 1:7.5 for 30 min at 30 °C; 10 uL added to 10 uL buffer (50 mM HEPES, 150 mM NaCl, 5 mM MgCl2, 1 mM DTT, 0.1 mM GDP, 1% glycerol); Refeyn TwoMP; percentage of dimer from molecular weight
Details: remark: other sources report otherwise

stoichiometry N: 2
Substance: Purified full-length LRRK2, Q5S007 1-2527
